T1: CD5 on human T cells (autologous and allogeneic Pan-T cells) and on the T-ALL cell line CCRF-CEM (human, UniProt P06127 25-495)
T1 sequence (looked up): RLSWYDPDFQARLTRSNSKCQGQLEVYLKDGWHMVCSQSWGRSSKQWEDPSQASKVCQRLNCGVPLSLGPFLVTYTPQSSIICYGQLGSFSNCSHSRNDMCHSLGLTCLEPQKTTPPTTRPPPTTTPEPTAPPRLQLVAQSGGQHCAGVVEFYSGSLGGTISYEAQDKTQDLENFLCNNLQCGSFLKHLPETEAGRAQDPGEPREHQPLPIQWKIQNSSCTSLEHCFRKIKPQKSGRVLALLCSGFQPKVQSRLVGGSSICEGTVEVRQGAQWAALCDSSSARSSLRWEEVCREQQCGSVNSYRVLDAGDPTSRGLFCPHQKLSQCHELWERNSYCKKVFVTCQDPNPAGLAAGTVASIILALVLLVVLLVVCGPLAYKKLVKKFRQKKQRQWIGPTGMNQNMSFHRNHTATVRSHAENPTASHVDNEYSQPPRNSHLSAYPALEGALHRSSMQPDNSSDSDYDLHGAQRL

B1: CD5/CD33 Dual-CAR, construct S048 (other)
chain: DIQMTQSPSSLSASVGDRVTITCRASESVDNYGISFMNWFQQKPGKAPKLLIYAASNQGSGVPSRFSGSGSGTDFTLTISSLQPDDFATYYCQQSKEVPWTFGQGTKVEIKGGGGSGGGGSGGGGSQVQLVQSGAEVKKPGSSVKVSCKASGYTFTDYNMHWVRQAPGQGLEWIGYIYPYNGGTGYNQKFKSKATITADESTNTAYMELSSLRSEDTAVYYCARGRPAMDYWGQGTLVTVSSASTTTPAPRPPTPAPTIASQPLSLRPEACRPAAGGAVHTRGLDFACDIYIWAPLAGTCGVLLLSLVITLYCKRGRKKLLYIFKQPFMRPVQTTQEEDGCSCRFPEEEEGGCELRVKFSRSADAPAYKQGQNQLYNELNLGRREEYDVLDKRRGRDPEMGGKPRRKNPQEGLYNELQKDKMAEAYSEIGMKGERRRGKGHDGLYQGLSTATKDTYDALHMQALPPRGSGATNFSLLKQAGDVEENPGPMALPVTALLLPLALLLHAARPDIKMTQSPSSMYASLGERVTITCKASQDINSYLSWFHHKPGKSPKTLIYRANRLVDGVPSRFSGSGSGQDYSLTISSLDYEDMGIYYCQQYDESPWTFGGGTKLEMKGGGGSGGGGSGGGGSNIQLVQSGPELKKPGETVKISCKASGYTFTNYGMNWVKQAPGKGLRWMGWINTHTGEPTYADDFKGRFAFSLETSASTAYLQINNLKNEDTATYFCTRRGYDWYFDVWGAGTTVTVSSSGTTTPAPRPPTPAPTIASQPLSLRPEACRPAAGGAVHTRGLDFACDIYIWAPLAGTCGVLLLSLVITLYCKRGRKKLLYIFKQPFMRPVQTTQEEDGCSCRFPEEEEGGCELRVKFSRSADAPAYKQGQNQLYNELNLGRREEYDVLDKRRGRDPEMGGKPRRKNPQEGLYNELQKDKMAEAYSEIGMKGERRRGKGHDGLYQGLSTATKDTYDALHMQALPPRFE
B2: CD5/CD33 Dual-CAR, construct S043 (other)
chain: QVQLVQSGAEVKKPGSSVKVSCKASGYTFTDYNMHWVRQAPGQGLEWIGYIYPYNGGTGYNQKFKSKATITADESTNTAYMELSSLRSEDTAVYYCARGRPAMDYWGQGTLVTVSSGGGGSDIQMTQSPSSLSASVGDRVTITCRASQDINSYLSWFQQKPGKAPKTLIYRANRLESGVPSRFSGSGSGTDYTLTISSLQYEDFGIYYCQQYDESPWTFGGGTKLEIKGSTSGSGKPGSGEGSTKGEIQLVQSGGGLVKPGGSVRISCAASGYTFTNYGMNWVRQAPGKGLEWMGWINTHTGEPTYADSFKGRFTFSLDDSKNTAYLQINSLRAEDTAVYFCTRRGYDWYFDVWGQGTTVTVSSGGGGSDIQMTQSPSSLSASVGDRVTITCRASESVDNYGISFMNWFQQKPGKAPKLLIYAASNQGSGVPSRFSGSGSGTDFTLTISSLQPDDFATYYCQQSKEVPWTFGQGTKVEIKASTTTPAPRPPTPAPTIASQPLSLRPEACRPAAGGAVHTRGLDFACDIYIWAPLAGTCGVLLLSLVITLYCKRGRKKLLYIFKQPFMRPVQTTQEEDGCSCRFPEEEEGGCELRVKFSRSADAPAYKQGQNQLYNELNLGRREEYDVLDKRRGRDPEMGGKPRRKNPQEGLYNELQKDKMAEAYSEIGMKGERRRGKGHDGLYQGLSTATKDTYDALHMQALPPR
B3: CD5/CD33 Dual-CAR, construct S049 (other)
chain: DIQMTQSPSSLSASVGDRVTITCRASESVDNYGISFMNWFQQKPGKAPKLLIYAASNQGSGVPSRFSGSGSGTDFTLTISSLQPDDFATYYCQQSKEVPWTFGQGTKVEIKGGGGSGGGGSGGGGSQVQLVQSGAEVKKPGSSVKVSCKASGYTFTDYNMHWVRQAPGQGLEWIGYIYPYNGGTGYNQKFKSKATITADESTNTAYMELSSLRSEDTAVYYCARGRPAMDYWGQGTLVTVSSASTTTPAPRPPTPAPTIASQPLSLRPEACRPAAGGAVHTRGLDFACDIYIWAPLAGTCGVLLLSLVITLYCKRGRKKLLYIFKQPFMRPVQTTQEEDGCSCRFPEEEEGGCELRVKFSRSADAPAYKQGQNQLYNELNLGRREEYDVLDKRRGRDPEMGGKPRRKNPQEGLYNELQKDKMAEAYSEIGMKGERRRGKGHDGLYQGLSTATKDTYDALHMQALPPRGSGATNFSLLKQAGDVEENPGPMALPVTALLLPLALLLHAARPDIQMTQSPSSLSASVGDRVTITCRASQDINSYLSWFQQKPGKAPKTLIYRANRLESGVPSRFSGSGSGTDYTLTISSLQYEDFGIYYCQQYDESPWTFGGGTKLEIKGGGGSGGGGSGGGGSEIQLVQSGGGLVKPGGSVRISCAASGYTFTNYGMNWVRQAPGKGLEWMGWINTHTGEPTYADSFKGRFTFSLDDSKNTAYLQINSLRAEDTAVYFCTRRGYDWYFDVWGQGTTVTVSSSGTTTPAPRPPTPAPTIASQPLSLRPEACRPAAGGAVHTRGLDFACDIYIWAPLAGTCGVLLLSLVITLYCKRGRKKLLYIFKQPFMRPVQTTQEEDGCSCRFPEEEEGGCELRVKFSRSADAPAYKQGQNQLYNELNLGRREEYDVLDKRRGRDPEMGGKPRRKNPQEGLYNELQKDKMAEAYSEIGMKGERRRGKGHDGLYQGLSTATKDTYDALHMQALPPRFE
B4: CD33 CAR CAR33-4, construct S014 (other)
chain: QVQLQQPGAEVVKPGASVKMSCKASGYTFTSYYIHWIKQTPGQGLEWVGVIYPGNDDISYNQKFQGKATLTADKSSTTAYMQLSSLTSEDSAVYYCAREVRLRYFDVWGQGTTVTVSSGGGGSGGGGSGGGGSEIVLTQSPGSLAVSPGERVTMSCKSSQSVFFSSSQKNYLAWYQQIPGQSPRLLIYWASTRESGVPDRFTGSGSGTDFTLTISSVQPEDLAIYYCHQYLSSRTFGQGTKLEIKRASTTTPAPRPPTPAPTIASQPLSLRPEACRPAAGGAVHTRGLDFACDIYIWAPLAGTCGVLLLSLVITLYCKRGRKKLLYIFKQPFMRPVQTTQEEDGCSCRFPEEEEGGCELRVKFSRSADAPAYKQGQNQLYNELNLGRREEYDVLDKRRGRDPEMGGKPRRKNPQEGLYNELQKDKMAEAYSEIGMKGERRRGKGHDGLYQGLSTATKDTYDALHMQALPPR
notes: Chimeric antigen receptor on T cells
B5: CD33 CAR CAR33-6, construct S016 (other)
chain: QVQLQQPGAEVVKPGASVKMSCKASGYTFTSYYIHWIKQTPGQGLEWVGVIYPGNDDISYNQKFKGKATLTADKSSTTAYMQLSSLTSEDSAVYYCAREVRLRYFDVWGAGTTVTVSSGGGGSGGGGSGGGGSNIMLTQSPSSLAVSAGEKVTMSCKSSQSVFFSSSQKNYLAWYQQIPGQSPKLLIYWASTRESGVPDRFTGSGSGTDFTLTISSVQSEDLAIYYCHQYLSSRTFGGGTKLEIKRASTTTPAPRPPTPAPTIASQPLSLRPEACRPAAGGAVHTRGLDFACDIYIWAPLAGTCGVLLLSLVITLYCKRGRKKLLYIFKQPFMRPVQTTQEEDGCSCRFPEEEEGGCELRVKFSRSADAPAYKQGQNQLYNELNLGRREEYDVLDKRRGRDPEMGGKPRRKNPQEGLYNELQKDKMAEAYSEIGMKGERRRGKGHDGLYQGLSTATKDTYDALHMQALPPR
notes: as for B4
B6: CD33 CAR CAR33-1, construct S011 (other)
chain: DIQMTQSPSSLSASVGDRVTITCRASESVDNYGISFMNWFQQKPGKAPKLLIYAASNQGSGVPSRFSGSGSGTDFTLTISSLQPDDFATYYCQQSKEVPWTFGQGTKVEIKGGGGSGGGGSGGGGSQVQLVQSGAEVKKPGSSVKVSCKASGYTFTDYNMHWVRQAPGQGLEWIGYIYPYNGGTGYNQKFKSKATITADESTNTAYMELSSLRSEDTAVYYCARGRPAMDYWGQGTLVTVSSASTTTPAPRPPTPAPTIASQPLSLRPEACRPAAGGAVHTRGLDFACDIYIWAPLAGTCGVLLLSLVITLYCKRGRKKLLYIFKQPFMRPVQTTQEEDGCSCRFPEEEEGGCELRVKFSRSADAPAYKQGQNQLYNELNLGRREEYDVLDKRRGRDPEMGGKPRRKNPQEGLYNELQKDKMAEAYSEIGMKGERRRGKGHDGLYQGLSTATKDTYDALHMQALPPR
notes: as for B4

T2 sequence (P20138 18-259 limits assumed): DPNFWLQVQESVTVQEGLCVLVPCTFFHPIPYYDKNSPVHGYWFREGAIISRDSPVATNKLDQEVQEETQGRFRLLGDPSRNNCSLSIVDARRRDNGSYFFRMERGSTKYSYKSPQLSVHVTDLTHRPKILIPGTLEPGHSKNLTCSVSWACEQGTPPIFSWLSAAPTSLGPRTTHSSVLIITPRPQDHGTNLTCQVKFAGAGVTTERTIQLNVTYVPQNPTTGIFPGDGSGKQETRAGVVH

The target of the first assay is T1, CD5 on human T cells (autologous and …). The experiment in a line: cell-based or functional assay.
As for B1, the “elimination of CCRF-CEM cells after 18 hours (luciferase-based killing assay)” value was ~100%.
Still for that read-out and setting: the figure for B2 is ~100%; for B3 it is ~100%.

A further assay addresses T2, CD33 human protein-PE (Sino Biological, 12238-HCCH_P) (human, UniProt P20138 18-259, PE label).
T2 construct: Bought staining reagent; also called CD33 antigen
The experiment in a line: flow cytometry; CAR-T cells stained with CD33 human protein-PE. The protocol:
CD3 and CD5 are stained with a CD3-FITC antibody (BD Biosciences, #555339) and a CD5-APC antibody (BD Biosciences, #555355) for 30 minutes at R.T. in the dark. CAR5 surface expression is detected by staining with Human CD5 Protein, HisTag (AcroBiosystems, Cat #CD5-H52H5) for 1 hour at R.T., washed and then incubated with His-APC antibody (R&D Systems, IC050A) for 30 minutes at R.T. in the dark. CAR33 expression is stained with CD33 human protein-PE (Sino Biological, 12238-HCCH_P) for 1 hour at R.T. All the staining is performed at 1:10 dilutions. DAPI (Thermo Scientific, Cat #BV-421, 1:5000) is used to stain dead cells before running by the Attune NxT Flow Cytometer (Thermo Fisher Scientific). Data is further analyzed by either using Attune NxT flow software or FlowJo software.
A general note: In flow cytometry, cells or beads pass a laser one at a time.
Consider B4, for which the binding result is reported as “binds”.
Same read-out and setting: the entry for B5 is “binds”; for B6 it is “binds”.

Source of the values: patent US20240000838A1 (SIMCERE INNOVATION, published 2024).
